Where “and” joins values, the source holds several entries; their conditions need not be identical. Equal values may be shown once.
How the values were obtained:
[1] = biological target: M. polysiphoniae SPARTA (MapSPARTA) complex of MapAgo and MapTIR-APAZ (Maribacter polysiphoniae); test: mass photometry
[2] = biological target: M. polysiphoniae SPARTA (MapSPARTA) complex of MapAgo and MapTIR-APAZ (Maribacter polysiphoniae); test: cryo-EM structure
[3] = biological target: M. polysiphoniae SPARTA (MapSPARTA) complex of MapAgo and MapTIR-APAZ (Maribacter polysiphoniae); test: cryo-EM structure; remark: listed apart in the source

stoichiometry N [1]: 2 and 4
stoichiometry N [2]: 4
stoichiometry N [3]: 2
Substance: M. polysiphoniae SPARTA (MapSPARTA) complex of MapAgo and MapTIR-APAZ

Source: paper PMC10355822
